Measurements as given in patent US20220356267A1.

Assays:
[1] = molecular target: recombinant human CD73 protein (ecto-5'-nucleotidase), expressed by the applicant, C-terminal 6x His tag (human) (UniProt P21589); assay: SPR, Biacore T200, antibody captured, human CD73 injected, 25 °C, 1:1 fit
[2] = molecular target: recombinant human CD73 protein (ecto-5'-nucleotidase), expressed by the applicant, C-terminal 6x His tag (human) (UniProt P21589); assay: cell-based or functional assay
CD73 on A549 cells = CD73 on A549 cells (UniProt P21589); assay: cell-based or functional assay

- Kd [1]: 0.107 nM
- koff [1]: 6.9e-05 s⁻¹
- kon [1]: 647000 M⁻¹ s⁻¹
- EC50 (µg/mL), Biochemical level, inhibition of the enzyme activity of CD73 [2]: 0.188 µg/mL
- EC50 (µg/mL), Cell level (A549 cells), inhibition of the enzyme activity of CD73 (CD73 on A549 cells): 0.113 µg/mL
Substance: MEDI-9447 (antibody)
